From article doi:10.1101/2021.12.03.471045 (bioRxiv, 2021)

Target: early pandemic (Wuhan) SARS-CoV-2 RBD (SARS-CoV-2, UniProt P0DTC2)
Assay: SPR
Conditions: both partners purified

B1: EY6A mAb (IgG) (antibody, V domains shown)
VH: EVQLVESGGGVVQPGRSLRLSCAASAFTFSSYDMHWVRQAPGKGLEWVAVISYDGSNKYYADSVKGRFTISRDNSKNTLYLQMNSLRAEDTAVYYCAKDGGKLWVYYFDYWGQGTLVTVSS
VL: not shown
Kd: 7.8 nM
